Experimental data reported in patent publication US20150086555A1.

Assays:
Conditions in all cases: remark: other sources report otherwise
[1] = biological target: recombinant homotrimeric HA A/Hong Kong/2108/03 H9N2 (Influenza A virus A/HK/2108/2003(H9N2)); experiment: protein microarray, purified IgG, trimeric HA
[2] = biological target: recombinant homotrimeric HA A/duck/Yangzhou/02/05 H8N4 (Influenza A virus A/duck/Yangzhou/02/2005(H8N4)); experiment: protein microarray, purified IgG, trimeric HA
[3] = biological target: recombinant homotrimeric HA A/California/4/09 H1N1 (Influenza A virus A/California/04/2009(H1N1)); experiment: protein microarray, purified IgG, trimeric HA
[4] = biological target: recombinant homotrimeric HA A/Egypt/3300-NAMRU3/08 H5N1 (Influenza A virus A/Egypt/3300-NAMRU3/2008(H5N1)); experiment: protein microarray, purified IgG, trimeric HA
[5] = biological target: recombinant homotrimeric HA A/South Carolina/1/18 H1N1 (Influenza A virus A/South Carolina/1/18 (H1N1)); experiment: protein microarray, purified IgG, trimeric HA
[6] = biological target: recombinant homotrimeric HA A/Vietnam/1203/04 H5N1 (Influenza A virus A/VietNam/1203/2004(H5N1)); experiment: protein microarray, purified IgG, trimeric HA
[7] = biological target: recombinant homotrimeric HA A/Japan/305/57 H2N2 (Influenza A virus A/Japan/305/1957(H2N2)); experiment: protein microarray, purified IgG, trimeric HA
[8] = biological target: recombinant homotrimeric HA A/Anhui/1/05 H5N1 (Influenza A virus A/Anhui/1/2005(H5N1)); experiment: protein microarray, purified IgG, trimeric HA
[9] = biological target: recombinant homotrimeric HA A/Indonesia/5/05 H5N1 (Influenza A virus A/Indonesia/5/2005(H5N1)); experiment: protein microarray, purified IgG, trimeric HA
[10] = biological target: recombinant soluble homotrimeric HA of A/chicken/Vietnam/NCVD-016/08 (H5N1) (Influenza A virus A/chicken/Vietnam/NCVD-016/2008(H5N1)); experiment: trimeric HA microarray, transfection supernatant set 5
[11] = biological target: recombinant soluble homotrimeric HA of A/South Carolina/1/18 (H1N1) (Influenza A virus A/South Carolina/1/18 (H1N1)); experiment: as above
[12] = biological target: T1, recombinant soluble homotrimeric HA of A/Vietnam/1203/04 (H5N1) (Influenza A virus A/VietNam/1203/2004(H5N1)); experiment: as above
[13] = biological target: T1, recombinant soluble homotrimeric HA of …; experiment: HA microarray, BCC supernatant
[14] = biological target: recombinant soluble homotrimeric HA of A/Wisconsin/67/05 (H3N2) (Influenza A virus A/Wisconsin/67/2005(H3N2)); experiment: HA microarray, BCC supernatant
[15] = biological target: recombinant soluble homotrimeric HA of A/Indonesia/5/05 (H5N1) (Influenza A virus A/Indonesia/5/2005(H5N1)); experiment: HA microarray, BCC supernatant

B1: TCN-541 (5062_M11) (antibody, V domains shown)
VH: QVQLQESGPGLVKPSETLSLTCTVSGGSINSYYWNWIRQPPGKGLEWIGYIYHSGSTNYNPSLKSRVTISVDTSKNQFSLQLSSVTAADTAVYYCARLRTDYGDPDSVYYYGMDVWGQGTTVTVSS
VL: SYELTQPPSVSVSPGQTARITCSGDALPKQNAYWYQQKPGQAPVLLIYKDSERPSGIPERFSGSSSGTTVTLTISGVQAEDEADYYCQSADSSGTSWVFGGGTKLTVL
[1]
  Trimeric HA Binding: RLU: 175 RLU
[2]
  Trimeric HA Binding: RLU: 352 RLU
[3]
  Trimeric HA Binding: RLU: 348 RLU
[4]
  Trimeric HA Binding: RLU: 791 RLU
[5]
  Trimeric HA Binding: RLU: 192 RLU
[6]
  Trimeric HA Binding: RLU: 1150 RLU
[7]
  Trimeric HA Binding: RLU: 934 RLU
[8]
  Trimeric HA Binding: RLU: 970 RLU
[9]
  Trimeric HA Binding: RLU: 160 RLU
[10]
  Trimeric HA Binding: RLU: 11000 RLU
[11]
  Trimeric HA Binding: RLU: 2580 RLU
[12]
  Trimeric HA Binding: RLU: 45500 RLU
[13]
  Trimeric HA Binding: RLU: 43 RLU
[14]
  Trimeric HA Binding: RLU: 2920 RLU
[15]
  Trimeric HA Binding: RLU: 30 RLU
